# Test results as given in patent US20230034768A1 (BIOSION, published 2023).
# Like-named read-outs stand apart in the source and are kept apart here.
# T1: Recombinant human RANKL-his protein (R&D, Cat #6449-TEC-010) (human, UniProt O14788 140-317, limits assumed)
# T1 sequence (looked up): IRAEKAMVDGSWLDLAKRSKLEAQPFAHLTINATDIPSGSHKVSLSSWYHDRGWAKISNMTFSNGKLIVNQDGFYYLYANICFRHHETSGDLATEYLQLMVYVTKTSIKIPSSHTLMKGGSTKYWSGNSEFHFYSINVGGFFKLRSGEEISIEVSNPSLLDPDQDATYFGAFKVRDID
# Tests used:
# [1] = biological target: T2, biotin-labeled human RANKL-Fc protein (prepared in house, SEQ ID NO.: 40) (human, biotin-labeled (sites not given)); assay: competitive ELISA: antibody blocks biotin-labeled human RANKL-Fc binding to coated human RANK-Fc
# T2 construct: also called RANKL-Fc-biotin
# Method: Briefly, human RANK-Fc proteins (prepared in house, SEQ ID NO.: 41) were coated on 96-well micro plates at 2.0 μg/mL in PBS, 100 μl/well, and incubated overnight at 4° C. The next day, plates were washed with wash buffer (PBS+0.05% w/v Tween-20, PBST), and blocked with 5% w/v non-fatty milk in PBST, 200 μl/well, for 2 hours at 37° C.
# Plates were washed 4 times using wash buffer, and added and incubated with 100 μl/well of streptavidin conjugated HRP (1:10000 dilution in PBST buffer, Jackson ImmunoResearch Laboratories, Inc., Cat #016-030-084) for 40 minutes at 37° C. Plates were washed again using wash buffer. Finally, TMB was added and the reaction was stopped using 1M H₂SO₄, and the absorbance of each well was read on a microplate reader using dual wavelengths mode with 450 nm for TMB and 630 nm as the reference wavelength. The OD (450-630) values were plotted against antibody concentration. Data were analyzed using Graphpad Prism software and IC₅₀ values were reported.
# [2] = biological target: T1, Recombinant human RANKL-his protein …; assay: cell-based or functional assay
# [3] = biological target: T2, biotin-labeled human RANKL-Fc protein …; assay: capture ELISA: captured antibody, biotin-labeled human RANKL-Fc, OD(450-630)
# Method: (§1) Plates were washed once with wash buffer (PBS+0.05% v/v Tween-20, PBST) and then blocked with 200 μl/well blocking buffer (5% w/v non-fatty milk in PBST) for 2 hours at 37° C. […] After a final wash, plates were incubated with 100 μl/well ELISA substrate TMB (Innoreagents, Cat #TMB-S-002) at room temperature. The reaction was stopped in 3-10 minutes with 50 μl/well 1M H₂SO₄, and the absorbance of each well was read on a microplate reader using dual wavelengths mode with 450 nm for TMB and 630 nm as the reference wavelength. The OD (450-630) values were plotted against antibody concentration. Data were analyzed using Graphpad Prism software and EC₅₀ values were reported.
# [4] = biological target: T1, Recombinant human RANKL-his protein …; assay: cell-based or functional assay; remark: listed apart in the source
# [5] = biological target: T2, biotin-labeled human RANKL-Fc protein …; assay: competitive ELISA: antibody blocks biotin-labeled human RANKL-Fc binding to coated benchmark denosumab
# Method: The next day, plates were washed with wash buffer, and blocked with 5% w/v non-fatty milk in PBST, 200 μl/well, for 2 hours at 37° C. […] After incubation at 37° C. for 40 minutes, plates were washed 4 times using wash buffer. Then the plates were added and incubated with 100 μl Peroxidase Streptavidin (1:5000 dilution in PBST buffer, Jackson Immunoresearch, Cat #016-030-084) for 40 minutes at 37° C. Plates were washed again using wash buffer. Finally, TMB was added and the reaction was stopped using 1M H₂SO₄. The absorbance of each well was read on a microplate reader using dual wavelengths mode with 450 nm for TMB and 630 nm as the reference wavelength, and the OD (450-630) values were plotted against antibody concentration. Data were analyzed using Graphpad Prism software and IC₅₀ values were reported.
# [6] = biological target: T2, biotin-labeled human RANKL-Fc protein …; assay: capture ELISA: captured antibody, biotin-labeled human RANKL-Fc, OD(450-630); remark: listed apart in the source
# Method: as §1
# Cell supernatants were harvested after six days in shaking flasks, spun down to pellet cells, and then chimeric antibodies were purified from cell supernatants as described above. The purified antibodies were tested in the capture ELISA, competitive ELISA assay and Octet affinity test following the protocols in the foregoing Examples.
IC50 [1],"IC50, RANKL-induced osteoclast differentiation of RAW264.7 cells (pNPP, OD405) [2]",EC50 [3],"IC50, RANKL-induced osteoclast differentiation of RAW264.7 cells (pNPP, OD405) [4]",IC50 [5],EC50 [6],Binder
2.1 nM,1.31 nM,0.583 nM,–,–,–,"mouse anti-RANKL monoclonal antibody B4H5 (antibody, V domains shown, Hybridoma-derived mouse IgG) VH: DVQLQESGPDLVKPSQSLSLTCTVTGYSISSGYSWHWIRQFPGNKLEWMDYIHFSGSTNYNPSLKSRISITRDTSKNQFFLQFISVTTEDTATYYCARSGPSTYVMDYWGQGTSVTVSS VL: DIVMTQSHRFMSTSVGDRVSITCKASQDVGAAVGWYQQKPGQSPKLLIYWASIRDTGVPDRFTGSGSGTDFTLTISNVQSEDLADYFCQHYNSYPLTFGGGTKLEIK"
0.0365 nM,–,0.0464 nM,0.998 nM,0.164 nM,0.246 nM,"mouse anti-RANKL monoclonal antibody D1E3 (antibody, V domains shown, Hybridoma-derived mouse IgG; also called Mouse D1E3) VH: EVQLVESGGGLVKPGGSLKLSCAASGFTFSRYAMSWVRQTPEKRLEWVAGISSGGTYTYYPDTVKGRFTISRDSAKNILYLQMGSLRSEDSAMYHCARRDYGDVYEWYFDVWGTGTTVTVSS VL: DIVMTQSHKFMSASVGDRVSITCKASQGVRIAVAWYQQKPGQSPKLLIYSASYRYTGVPDRFTGSGSGTDFTFTISSVQAEDLAVYYCQQHHSSPWTFGGGTKLEIK"
